Test results taken from patent US10655124B2, “Proximity based methods for selection of binding partners” (THE SCRIPPS RESEARCH INSTITUTE, priority 2014, dated 2020).

Legend:
GLP1R = target: T1, GLP1R (Homo sapiens, UniProt P43220); experiment: Proximity based reaction assay, GLP1R constructions, tdTomato reporter, fluorescent microscopy; assay type: cell-based
T1 construct: Four TEV cleavage sites that are cleaved with varying efficiency were used for the GLP1R (1-426) constructions; expressed in transfected cells
Description: Stable cell lines containing the tdTomato reporter gene under control of UAS and GLP1R constructions with different TEV cleavage sites were studied.

[1] = target: glucagon-like peptide 1 receptor (GLP1R) (Homo sapiens, UniProt P43220); experiment: Proximity based reaction assay, GLP1R-TEV cleavage site-transcription factor cell line, luciferase reporter; settings: for S/N ratio and noise with different TEV cleavage sites: GLP1R (1-426) constructions, Exendin-4 ligand, 1-3 days post infection
CXCR4 = CXCR4 (Homo sapiens, UniProt P61073); experiment: Proximity based reaction assay with irrelevant receptor CXCR4 replacing GLP1R; assay type: cell-based; settings: irrelevant G protein-coupled receptor control
[2] = target: T2, Thrombopoietin receptor (TpoR) (Homo sapiens, UniProt P40238); experiment: Proximity based reaction assay, TpoR-TEV cleavage site-transcription factor cell line, luciferase reporter
T2 construct: The coding region of TpoR or GLP1R was followed by the TEV protease cleavage site and the GAL4-VP16 transcription factor; expressed in transfected cells
T2 sequence (P40238 26-635): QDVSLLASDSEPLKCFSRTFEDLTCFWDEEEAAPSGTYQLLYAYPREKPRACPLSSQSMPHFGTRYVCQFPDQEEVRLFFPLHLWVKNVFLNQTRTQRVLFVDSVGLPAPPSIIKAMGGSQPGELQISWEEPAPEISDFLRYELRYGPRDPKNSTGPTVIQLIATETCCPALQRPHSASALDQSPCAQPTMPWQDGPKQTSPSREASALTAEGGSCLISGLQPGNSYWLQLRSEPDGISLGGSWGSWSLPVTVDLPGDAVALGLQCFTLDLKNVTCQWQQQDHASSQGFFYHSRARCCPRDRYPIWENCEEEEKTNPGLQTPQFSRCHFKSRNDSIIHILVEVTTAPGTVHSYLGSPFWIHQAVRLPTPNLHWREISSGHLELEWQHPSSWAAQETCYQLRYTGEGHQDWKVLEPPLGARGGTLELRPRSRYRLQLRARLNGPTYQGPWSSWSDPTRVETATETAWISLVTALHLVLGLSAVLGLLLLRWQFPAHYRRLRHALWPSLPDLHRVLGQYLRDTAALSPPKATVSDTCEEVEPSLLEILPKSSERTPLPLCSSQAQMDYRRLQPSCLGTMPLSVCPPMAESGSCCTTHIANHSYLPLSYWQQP
Description: FIG. 2. Proximity based identification of Thrombopoietin receptor (TpoR) activation. Stable cell lines harboring the luciferase reporter gene under control of UAS and TpoR-TEV cleavage site-transcription factor were established. Cells were transduced with lentivirus encoding Thrombopoietin (TPO) or the TpoR binding antibodies 3D9 or 14F12. Genes encoding different linkers including 3, 5, 6, 8, or 10 copies of (GGGGS) (SEQ ID NO:1) or a human IgG1 Fc were placed between the ligand and PDGFR trans-membrane domain. Luciferase activities were measured 2 days post infection. The cell line harboring GLP1R-TEV cleavage site-Transcription factor was used as negative cell control. The reaction was controlled by measuring the luminescence signals from control lentivirus carrying irrelevant antibodies with the same linker type and length.
The stable cell line harboring both the UAS-reporter gene and receptor-cleavage site-transcription factor was plated in a 96 well plate at 20000 cells per well. Cells were infected by lentivirus carrying the ligand-TM-TEV protease at MOI equal to 1. Cells were cultured for 24-72 h before measuring the reporter gene activity. Luciferase activity was determined by using a luciferase assay system (Promega) while expression of tdTomato was observed by fluorescent microscopy.
A similarly constructed irrelevant antibody was used as a negative control. […]

[3] = system: glucagon-like peptide 1 receptor (GLP1R); experiment: Proximity based reaction assay, GLP1R-TEV cleavage site-transcription factor cell line, luciferase reporter; settings: orthogonal control for non-specific interactions; membrane displayed ligand

Chain of glucagon-like peptide 1 receptor (GLP1R) (Homo sapiens, UniProt P43220) (P43220 24-426): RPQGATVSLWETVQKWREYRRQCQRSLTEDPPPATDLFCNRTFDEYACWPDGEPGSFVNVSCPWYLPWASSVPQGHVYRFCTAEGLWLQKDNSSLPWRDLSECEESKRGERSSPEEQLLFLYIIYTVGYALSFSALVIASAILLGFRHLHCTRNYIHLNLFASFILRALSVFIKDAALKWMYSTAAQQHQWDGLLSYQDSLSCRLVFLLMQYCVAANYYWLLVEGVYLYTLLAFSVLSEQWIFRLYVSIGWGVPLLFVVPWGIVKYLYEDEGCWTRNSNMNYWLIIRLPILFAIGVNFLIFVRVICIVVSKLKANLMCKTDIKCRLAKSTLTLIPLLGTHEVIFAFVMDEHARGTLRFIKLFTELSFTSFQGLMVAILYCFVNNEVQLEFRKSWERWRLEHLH
T1 sequence (P43220 24-426, species assumed): as the sequence (P43220 24-426) above
Chain of CXCR4 (P61073 whole entry, species assumed): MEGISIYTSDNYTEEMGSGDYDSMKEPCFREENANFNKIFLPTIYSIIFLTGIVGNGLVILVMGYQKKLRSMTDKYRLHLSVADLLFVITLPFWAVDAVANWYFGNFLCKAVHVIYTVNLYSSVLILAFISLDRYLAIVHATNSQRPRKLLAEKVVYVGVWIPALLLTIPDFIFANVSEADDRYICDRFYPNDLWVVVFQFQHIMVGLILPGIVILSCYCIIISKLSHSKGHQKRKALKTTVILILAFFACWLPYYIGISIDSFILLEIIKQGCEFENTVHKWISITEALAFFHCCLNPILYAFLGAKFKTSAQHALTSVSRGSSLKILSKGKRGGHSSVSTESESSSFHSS

## ENFYFQS (SEQ ID NO:5) [TEV 2]
GLP1R
  background with different TEV cleavage sites, tdTomato reporter: much lower background
[1]
  S/N ratio and noise with different TEV cleavage sites: highest S/N ratio

## ENLFFQS (SEQ ID NO:7) [TEV 4]
[1]
  S/N ratio and noise with different TEV cleavage sites: very high level of noise

## ENLYFQS (SEQ ID NO:4) [TEV1]
[1]
  S/N ratio and noise with different TEV cleavage sites: very high level of noise

## ENLYYQS (SEQ ID NO:6) [TEV 3]
GLP1R
  background with different TEV cleavage sites, tdTomato reporter: much lower background

## Exendin-4
CXCR4
  response when CXCR4 replaced the GLP1R: no response

## Thrombopoietin [TPO]
[2]; ligand displayed at plasma membrane via PDGFR TM-TEV protease, lentivirus, luciferase 2 days post infection
  transcription factor mediated signal relative to the irrelevant antibody control: increased the transcription factor mediated signal
[2]; tandem repeats of GGGGS linker
  effect of linker length between ligand and TM domain on proximity-based signal: generated similar signals
[3]
  signal in cells bearing the wrong receptor (GLP1R-transcription factor fusion cell line): did not increase the signal

## Vc1.1
[1]
  signal to noise (S/N) ratio, non-specific peptide control: even lower S/N
